What was measured:
Type in all cases: in vivo, human
RCC and OVC subjects [1] = test: Phase 1 dose escalation part: safety and tolerability (TEAEs, DLT, RDE)
Experimental: (§1) The dose escalation part of the Phase 1 study was a multicenter, open-label, multiple-dose, first-in-human study of DS-6000a, which enrolled subjects in the United States (see clinicaltrials.gov identifier NCT 04707248). DS-6000a was administered intravenously every 3 weeks. In the dose escalation part, RCC and OVC subjects were enrolled and dose-limiting toxicity (DLT) was assessed during Cycle 1.
The primary objective of the dose escalation part was to investigate the safety and tolerability and determine the maximum-tolerated dose (MTD) and/or recommended dose for expansion (RDE).
(§2) Patient assessments included echocardiogram or multigated acquisition scan, 12-lead electrocardiogram, AEs, PK, human anti-human antibodies, biomarkers, and tumor assessments at prespecified visits. The demographic and baseline characteristics of the patient enrolled in this dose escalation part of the Phase 1 study are shown in FIG. 2.
(§3) For this dose escalation part of the Phase 1 study, Bayesian optimal interval (BOIN) design was used to estimate the MTD. Accelerated titration, treat a single subject at a dose level, was performed until any DLT or ≥Grade 2 AE possibly related to DS-6000a (excluding infusion-related reactions) is observed during Cycle 1. Objective response rate (ORR), clinical benefit rate (CBR), and disease control rate (DCR) were summarized with 95% confidence intervals (CI) using the Clopper-Pearson method; duration of response (DOR) and progression-free survival (PFS) were summarized using the Kaplan-Meier method. Safety endpoints, PK parameters and plasma anti-drug antibodies were summarized using descriptive statistics.

RCC and OVC subjects [2] = test: Phase 1 dose escalation and expansion parts as of new cut-off date: safety and tolerability
Experimental: (§4) The dose expansion part of the Phase 1 study was a multicenter, open-label, multiple-dose, first-in-human study of DS-6000a, which enrolled subjects in the United States (see clinicaltrials.gov identifier NCT 04707248). DS-6000a was administered intravenously every 3 weeks. The dose expansion part included administering to RCC and OVC subjects at RDEs. Initially, dose of 8.0 mg/kg was expanded, subsequently, the 6.4, 5.6 and 4.8 mg/kg doses were added as RDEs (FIG. 12).
The primary objective of the dose expansion part was to evaluate the safety, tolerability, and efficacy at the RDEs.
Patient assessments included echocardiogram or multigated acquisition scan, 12-lead electrocardiogram, AEs, PK, human anti-human antibodies, biomarkers, and tumor assessments at prespecified visits.
(§5) Objective response rate (ORR), clinical benefit rate (CBR), and disease control rate (DCR) were summarized with 95% confidence intervals (CI) using the Clopper-Pearson method; duration of response (DOR) and progression-free survival (PFS) were summarized using the Kaplan-Meier method. Safety endpoints, PK parameters and plasma anti-drug antibodies were summarized using descriptive statistics.
(§6) After the initial data-cut, additional patients were enrolled in Phase 1 (both escalation and expansion), bringing the overall number of participants to sixty-seven (N=67). The demographic and baseline characteristics of the patient enrolled in dose escalation and expansion parts of the Phase 1 study as of new cut-off date are shown in FIG. 13. Subjects ranged in age from 34 to 83 years with a median age of 63 years. A median of 4 prior lines of therapy was administered. The prior lines of therapy comprise a platinum-based chemotherapeutic, a chemotherapeutic, a PARP inhibitor, an immune checkpoint inhibitor, an angiogenic inhibitor and a VEGFR-TKI. The subjects were 25.4% RCC, 74.6% OVC and 64.2% had Eastern Cooperative Oncology Group performance status (ECOG PS) of 1.
Subjects had received DS-6000a as monotherapy with a median treatment duration of 15.4 weeks (range 3.0 to 93.9 weeks). The number of patients in the dose escalation and expansion parts of the Phase 1 study as of new cut-off date with TEAE, which occurred in […] of patients, regardless of causality, is shown in FIG. 14.

RCC and OVC subjects [3] = test: Phase 1 dose escalation part: tumor response per RECIST V1.1
Experimental: as §1, §2, §3

CA-125 [4] = test: Phase 1 dose escalation part: CA-125 response (GCIG criteria)
From the text: (§7) Secondary objectives included characterizing the pharmacokinetic (PK) properties of DS-6000a, total anti-CDH6 antibody, drug component and assessing the immunogenicity. Exploratory objectives included evaluating biomarker that correlate with efficacy and disease assessment in OVC using Gynecologic Cancer Intergroup (GCIG) criteria.

CA-125 [5] = test: Phase 1 dose escalation and expansion parts as of new cut-off date: CA-125 response
From the text: as §7

OVC subjects = test: Phase 1 dose escalation and expansion parts as of new cut-off date: tumor response, ORR and PFS
Experimental: as §4, §5, §6
One confirmed CR and 14 confirmed PR were observed among 44 evaluable OVC subjects at doses ranging from 1.6 to 9.6 mg/kg. SD was reported for 24 subjects (FIG. 17).

[6] = dose escalation and expansion parts, new cut-off date, N=67
[7] = dose escalation part, among 24 efficacy evaluable patients
[8] = among 44 evaluable OVC subjects, 1.6 to 9.6 mg/kg, new cut-off date

DS-6000a: anti-CDH6 antibody (SEQ ID NO: 69 positions 20-471; SEQ ID NO: 61 positions 21-233) bound via thioether bond to drug linker; DAR 7 to 8
patients discontinued due to PD per RECIST V1.1 (RCC and OVC subjects [1]; 1.6 mg/kg): 1 patients
patients discontinued due to clinical progression (RCC and OVC subjects [1]; 3.2 mg/kg): 1 patients
patients discontinued due to death (RCC and OVC subjects [1]; 3.2 mg/kg): One
patients required dose interruption (RCC and OVC subjects [1]; 3.2 mg/kg): 1 patients
patients discontinued due to clinical progression (RCC and OVC subjects [1]; 4.8 mg/kg): 1 patients
patients required dose interruption (RCC and OVC subjects [1]; 4.8 mg/kg): 2 patients
patients discontinued due to PD per RECIST V1.1 (RCC and OVC subjects [1]; 6.4 mg/kg): 2 patients
patients discontinued due to clinical progression (RCC and OVC subjects [1]; 6.4 mg/kg): 1 patients
patients required dose interruption (RCC and OVC subjects [1]; 6.4 mg/kg): 3 patients
patients discontinued due to PD per RECIST V1.1 (RCC and OVC subjects [1]; 8.0 mg/kg): 2 patients
patients discontinued due to clinical progression (RCC and OVC subjects [1]; 8.0 mg/kg): 1 patients
patients required dose interruption (RCC and OVC subjects [1]; 8.0 mg/kg): 1 patients
patients required dose reduction (RCC and OVC subjects [1]; 8.0 mg/kg): 1 patients
patients discontinued due to adverse event (RCC and OVC subjects [1]; 9.6 mg/kg): One
patients required dose interruption (RCC and OVC subjects [1]; 9.6 mg/kg): 2 patients
patients required dose reduction (RCC and OVC subjects [1]; 9.6 mg/kg): 2 patients
DLTs (RCC and OVC subjects [1]; 9.6 mg/kg, Cycle 1, Gr3 febrile neutropenia and Gr4 platelet count decreased): Two
serious TEAEs considered drug-related (RCC and OVC subjects [1]; Grade 3 anaemia and Grade 3 febrile neutropenia at 9.6 mg/kg): Two
RDE (recommended dose for expansion) (RCC and OVC subjects [1]; IV every 3 weeks): 8.0 mg/kg
grade of serious TEAEs (RCC and OVC subjects [1]; N=30): all events are Grade 3
patients with serious TEAEs (RCC and OVC subjects [1]; N=30 (4/30)): 13.3%
patients reported Grade 23 related TEAE (RCC and OVC subjects [1]; N=30 (7/30), drug-related): 23.3%
patients reported Grade 23 TEAE (RCC and OVC subjects [1]; N=30 (10/30), regardless of causality): 33.3%
patients discontinued from treatment (RCC and OVC subjects [1]; N=30 (13 patients)): 43.3%
patients with drug-related TEAEs (RCC and OVC subjects [1]; N=30 (25 patients)): 83.3%
patients reported 21 TEAE (RCC and OVC subjects [1]; N=30 (26/30), regardless of causality, IV every 3 weeks): 86.7%
patients discontinued due to PD per RECIST V1.1 (RCC and OVC subjects [1]; N=30, all dose levels): 5 patients
patients discontinued due to clinical progression (RCC and OVC subjects [1]; N=30, all dose levels): Four
patients required dose interruption (RCC and OVC subjects [1]; N=30, all dose levels): Nine
patients required dose reduction (RCC and OVC subjects [1]; N=30, all dose levels): three
Grade 23 related TEAE neutrophil count decreased (RCC and OVC subjects [1]; N=30, drug-related): 16.7%
related TEAE decreased appetite (RCC and OVC subjects [1]; N=30, drug-related): 20.0%
related TEAE fatigue (RCC and OVC subjects [1]; N=30, drug-related): 56.7%
related TEAE nausea (RCC and OVC subjects [1]; N=30, drug-related): 60.0%
related TEAE neutrophil count decreased (RCC and OVC subjects [1]; N=30, drug-related): 23.3%
related TEAE vomiting (RCC and OVC subjects [1]; N=30, drug-related): 30.0%
Grade 23 TEAE anaemia (RCC and OVC subjects [1]; N=30, regardless of causality): 10.0%
Grade 23 TEAE hypokalemia (RCC and OVC subjects [1]; N=30, regardless of causality): 10.0%
Grade 23 TEAE neutrophil count decreased (RCC and OVC subjects [1]; N=30, regardless of causality): 16.7%
TEAE decreased appetite (RCC and OVC subjects [1]; N=30, regardless of causality): 40.0%
TEAE diarrhoea (RCC and OVC subjects [1]; N=30, regardless of causality): 20.0%
TEAE fatigue (RCC and OVC subjects [1]; N=30, regardless of causality): 63.3%
TEAE nausea (RCC and OVC subjects [1]; N=30, regardless of causality): 60.0%
TEAE neutrophil count decreased (RCC and OVC subjects [1]; N=30, regardless of causality): 23.3%
TEAE vomiting (RCC and OVC subjects [1]; N=30, regardless of causality): 46.7%
tolerability (RCC and OVC subjects [1]; as of data cut off): generally well tolerated
fatal cases (RCC and OVC subjects [2]; 8.0 mg/kg): 3
tolerability (RCC and OVC subjects [2]; 8.0 mg/kg, frequent dose reduction/interruption compared to lower doses): not tolerated
doses at which well tolerated (RCC and OVC subjects [2]; dose escalation and expansion parts, new cut-off date): up to 6.4 mg/kg
most frequently reported Grade 23 events (RCC and OVC subjects [2]; [6]): hematological events
severity of the majority of the gastrointestinal events (RCC and OVC subjects [2]; [6]): Grade 1 or 2
most frequently reported TEAEs (RCC and OVC subjects [2]; dose escalation and expansion parts, new cut-off date, N=67, monotherapy): gastrointestinal events (nausea, vomiting and diarrhea), fatigue, decreased appetite and hematological events (anaemia, neutrophil count decreased and platelet count decreased)
time stayed in treatment, one patient with SD (RCC and OVC subjects [3]; dose escalation part, 8.0 mg/kg): more than 180 days
tumor shrinkage in target lesion (RCC and OVC subjects [3]; dose escalation part, 3.2, 4.8, 6.4, 8.0 and 9.6 mg/kg dose levels): Tumor shrinkages were observed
durability of tumor responses (RCC and OVC subjects [3]; dose escalation part, FIG. 6): durable
PRs based on RECIST V1.1 (RCC and OVC subjects [3]; dose escalation part, RCC, among 24 efficacy evaluable patients): one
best percent change in sum of longest dimensions from baseline (tumor reduction) (RCC and OVC subjects [3]; dose escalation part, a patient in the 9.6 mg/kg dosing group): 68.8%
Non-CR/Non-PDs (RCC and OVC subjects [3]; [7]): 2
PRs (including single point PRs, not yet confirmed responses) based on RECIST V1.1 (RCC and OVC subjects [3]; [7]): 6
stable diseases (SDs) (RCC and OVC subjects [3]; [7]): 12
PRs based on RECIST V1.1 (RCC and OVC subjects [3]; dose escalation part, platinum-resistant OVC, among 24 efficacy evaluable patients): five
maximum decrease in tumor size (RCC and OVC subjects [3]; one clear cell RCC patient, 3 prior therapies including ICI and VEGFR-TKI, 3.2 mg/kg, 51.4 weeks following initiation of treatment): 64.3%
maximum decrease in tumor size (RCC and OVC subjects [3]; one platinum-resistant OVC patient, 3 prior therapies including bevacizumab and PARP inhibitor, 6.4 mg/kg, 40.4 weeks following initiation of treatment): 35.7%
durability of CA-125 responses (CA-125 [4]; FIG. 8): durable
patients showed CA-125 responder (CA-125 [4]; among 17 efficacy evaluable OVC patients, at least 50% reduction in CA-125 from baseline, confirmed and maintained at least 28 days): 8 patients
CA-125 response rates by dose level (CA-125 [4]; dose level of 4.8 to 9.6 mg/kg): Higher CA-125 response rates
CA-125 response rates among dose levels (CA-125 [5]; OVC patients): High CA-125 response rates
CA-125 reductions (CA-125 [5]; OVC subjects, FIG. 18): deep and durable
patients showed CA-125 responder (CA-125 [5]; among 28 efficacy evaluable OVC patients, at least 50% reduction in CA-125 from baseline, confirmed and maintained at least 28 days): 15 patients
preliminary efficacy signals by dose (OVC subjects; 4.8 and 6.4 mg/kg compared to 8.0 mg/kg, small sample size): better preliminary efficacy signals
median PFS (OVC subjects; OVC subjects, 3.2 mg/kg): 13.9 months
median PFS (OVC subjects; OVC subjects, 4.8 mg/kg): 7.9 months
median PFS (OVC subjects; OVC subjects, 6.4 mg/kg): 5.8 months
median PFS (OVC subjects; OVC subjects, 8.0 mg/kg): 5.6 months
median PFS (OVC subjects; OVC subjects, doses ranging from 1.6 to 9.6 mg/kg): 5.8 months
dose-effect on efficacy (OVC subjects; OVC subjects, higher dosing group, FIG. 16): consistent and pronounced reduction in tumor size
ORR compared to current standard of care (single-agent chemotherapies) in platinum resistant ovarian cancer (OVC subjects; OVC subjects, new cut-off date): Higher ORR
PFS compared to current standard of care (single-agent chemotherapies) in platinum resistant ovarian cancer (OVC subjects; OVC subjects, new cut-off date): Longer PFS
ORR (OVC subjects; among 41 evaluable OVC subjects with measurable disease at baseline, 1.6 to 9.6 mg/kg): 36.6%
confirmed CR (OVC subjects; [8]): One
confirmed PR (OVC subjects; [8]): 14
